Laboratory results: patent US20180185450A1 (Sanofi, published 2018)
Where a chain is given by its changes, count along the chain named. Numbered stars: 1 amine (or outer) side, 2 acyl side, 3 side chain; on linkers, the order of the positions; unused ones are H or OH. Square brackets hold non-standard residues; d marks the D form. Side chains are listed from the residue outwards. Ends that are not written are not given here. γGlu = O=C(O)[C@H](CCC(=O)[*:2])N[*:1]; x53 = not defined here; Aib = CC(C)(N)C(=O)O

B1: SEQ ID NO: 87 (peptide)
peptide: HXQGTFTSDLSKQKDERRAKDFIEWLKNGGPSSGAPPPS
modifications: dSer at 2; K(γE-x53) at 14; C-terminal NH2
B2: SEQ ID NO: 6 (peptide)
peptide: HXQGTFTSDLSKQKESRRAQLFIEWLKAGGPSSGAPPPSK
modifications: dSer at 2; K(γE-x53) at 14; K(γE-x53) at 40; C-terminal NH2
B3: SEQ ID NO: 77 (peptide)
peptide: H[Aib]QGTFTSDLSKQK([γGlu-x53])ESRRAQDFIEWLKAGGPSSGAPPPS-NH2
modifications: reading uncertain
B4: SEQ ID NO: 51 (peptide)
peptide: HXQGTFTSDLSKQKESRAAQDFIEWLKAGGPSSGAPPPS
modifications: dSer at 2; K(γE-x70) at 14; C-terminal NH2
B5: SEQ ID NO: 69 (peptide)
peptide: B4 peptide with A18R, D21L
modifications: dSer at 2; K(x53) at 14; C-terminal NH2
B6: SEQ ID NO: 64 (peptide)
peptide: B4 peptide
modifications: dSer at 2; K(γE-x82) at 14; C-terminal NH2
B7: SEQ ID NO: 71 (peptide)
peptide: B4 peptide with K14X, A18R
modifications: dSer at 2; Orn(γE-x53) at 14; C-terminal NH2
B8: SEQ ID NO: 55 (peptide)
peptide: B4 peptide
modifications: dSer at 2; K(γE-x74) at 14; C-terminal NH2
B9: SEQ ID NO: 7 (peptide)
peptide: B4 peptide with R17K
modifications: dSer at 2; K(GABA-x53) at 14; C-terminal NH2
B10: SEQ ID NO: 68 (peptide)
peptide: B4 peptide with A18R, D21L
modifications: dSer at 2; K(γE-x53) at 14; C-terminal NH2
B11: SEQ ID NO: 79 (peptide)
peptide: B4 peptide with A18R, A28X
modifications: dSer at 2; K(γE-x53) at 14; Aib at 28; C-terminal NH2
B12: SEQ ID NO: 63 (peptide)
peptide: B4 peptide
modifications: dSer at 2; K(γE-x81) at 14; C-terminal NH2
B13: SEQ ID NO: 66 (peptide)
peptide: B4 peptide
modifications: dSer at 2; K(x53) at 14; C-terminal NH2
B14: SEQ ID NO: 59 (peptide)
peptide: B4 peptide
modifications: dSer at 2; K(γE-x76) at 14; C-terminal NH2
B15: SEQ ID NO: 53 (peptide)
peptide: B4 peptide
modifications: dSer at 2; K(GABA-x70) at 14; C-terminal NH2
B16: SEQ ID NO: 94 (peptide)
peptide: B1 peptide with E16S, K20Q, G29X
modifications: dSer at 2; K(γE-x53) at 14; dAla at 29; C-terminal NH2
B17: SEQ ID NO: 96 (peptide)
peptide: B4 peptide with A18R, A28N, G29T
modifications: dSer at 2; K(γE-x53) at 14; C-terminal NH2
B18: SEQ ID NO: 82 (peptide)
peptide: B4 peptide with A18R, A28E, A35R
modifications: dSer at 2; K(γE-x53) at 14; C-terminal NH2
B19: SEQ ID NO: 52 (peptide)
peptide: B4 peptide
modifications: dSer at 2; K(γE-γE-x70) at 14; C-terminal NH2
B20: SEQ ID NO: 76 (peptide)
peptide: B4 peptide with A18R, Q20X
modifications: dSer at 2; K(x53) at 14; Aib at 20; C-terminal NH2
B21: SEQ ID NO: 70 (peptide)
peptide: B4 peptide with D21L
modifications: dSer at 2; K(γE-x53) at 14; C-terminal NH2
B22: SEQ ID NO: 73 (peptide)
peptide: B4 peptide with Q3H, A18R
modifications: dSer at 2; K(γE-x53) at 14; C-terminal NH2
B23: SEQ ID NO: 85 (peptide)
peptide: B4 peptide with A18R, A28K
modifications: dSer at 2; K(γE-x53) at 14; C-terminal NH2
B24: SEQ ID NO: 93 (peptide)
peptide: B1 peptide with E16S, K20Q, G29A
modifications: dSer at 2; K(γE-x53) at 14; C-terminal NH2
B25: SEQ ID NO: 72 (peptide)
peptide: B4 peptide with K14X, A18R
modifications: dSer at 2; Dab(γE-x53) at 14; C-terminal NH2
B26: SEQ ID NO: 86 (peptide)
peptide: B4 peptide with E15D, R17Q, A28N, G29T
modifications: dSer at 2; K(γE-x53) at 14; C-terminal NH2
B27: SEQ ID NO: 89 (peptide)
peptide: B1 peptide with E16S, K20Q
modifications: dSer at 2; K(γE-x60) at 14; C-terminal NH2
B28: SEQ ID NO: 88 (peptide)
peptide: B1 peptide with D15E, E16K, K20Q
modifications: dSer at 2; K(γE-x53) at 14; C-terminal NH2
B29: SEQ ID NO: 83 (peptide)
peptide: B4 peptide with A18R, A28E, A35R
modifications: dSer at 2; K(x53) at 14; C-terminal NH2
B30: SEQ ID NO: 81 (peptide)
peptide: B1 peptide with E16S, K20Q, N28D
modifications: dSer at 2; K(x53) at 14; C-terminal NH2
B31: SEQ ID NO: 61 (peptide)
peptide: B4 peptide
modifications: dSer at 2; K(γE-x79) at 14; C-terminal NH2
B32: SEQ ID NO: 91 (peptide)
peptide: B1 peptide with E16S, K20Q
modifications: dSer at 2; K(γE-x72) at 14; C-terminal NH2
B33: SEQ ID NO: 62 (peptide)
peptide: B4 peptide
modifications: dSer at 2; K(γE-x80) at 14; C-terminal NH2
B34: SEQ ID NO: 92 (peptide)
peptide: B1 peptide with E16S, K20Q, G29T
modifications: dSer at 2; K(γE-x53) at 14; C-terminal NH2
B35: SEQ ID NO: 58 (peptide)
peptide: B4 peptide
modifications: dSer at 2; K(GABA-x60) at 14; C-terminal NH2
B36: SEQ ID NO: 56 (peptide)
peptide: B4 peptide
modifications: dSer at 2; K(GABA-x74) at 14; C-terminal NH2
B37: SEQ ID NO: 54 (peptide)
peptide: B4 peptide
modifications: dSer at 2; K(βA-βA-x70) at 14; C-terminal NH2
B38: SEQ ID NO: 65 (peptide)
peptide: B4 peptide
modifications: dSer at 2; K(γE-x70) at 14; C-terminal NH2
B39: SEQ ID NO: 67 (peptide)
peptide: B1 peptide with E16S, K20X, N28A
modifications: dSer at 2; K(γE-x53) at 14; Aib at 20; C-terminal NH2
B40: SEQ ID NO: 11 (peptide)
peptide: B4 peptide with R17X
modifications: dSer at 2; K(γE-x70) at 14; Aib at 17; C-terminal NH2
B41: SEQ ID NO: 57 (peptide)
peptide: B4 peptide
modifications: dSer at 2; K(γE-x60) at 14; C-terminal NH2
B42: SEQ ID NO: 10 (peptide)
peptide: B1 peptide with E16S, K20Q
modifications: dSer at 2; K(γE-x53) at 14; C-terminal NH(n-Propyl)
B43: SEQ ID NO: 90 (peptide)
peptide: B1 peptide with E16S, K20Q
modifications: dSer at 2; K(γE-x69) at 14; C-terminal NH2
B44: SEQ ID NO: 9 (peptide)
peptide: B4 peptide
modifications: dSer at 2; K(γE-x75) at 14; C-terminal NH2
B45: SEQ ID NO: 60 (peptide)
peptide: B4 peptide
modifications: dSer at 2; K(γE-x77) at 14; C-terminal NH2
B46: SEQ ID NO: 95 (peptide)
peptide: B4 peptide with A18R, A28N, G29A
modifications: dSer at 2; K(γE-x53) at 14; C-terminal NH2
B47: SEQ ID NO: 8 (peptide)
peptide: B1 peptide with E16S, K20Q
modifications: dSer at 2; K(γE-x70) at 14; C-terminal NH2
B48: SEQ ID NO: 80 (peptide)
peptide: B1 peptide with E16S, K20Q, N28D
modifications: dSer at 2; K(γE-x53) at 14; C-terminal NH2
B49: SEQ ID NO: 98 (peptide)
peptide: B1 peptide with E16S, K20Q
modifications: dSer at 2; K(γE-x53) at 14; C-terminal NH(pyrrolidin)
B50: GLP-1(7-36)-amide (peptide)
peptide: HAEGTFTSDVSSYLEGQAAKEIAWLVKGR-NH2

Molecular target: human GLP-1 receptor (human, UniProt P43220 24-463)
Test: cell-based or functional assay

Row | Binder | EC50 hGLP-1R (cAMP) [pM]
1 | B1 | 3
2 | B2 | 141
3 | B3 | 4.3
4 | B4 | 2.7
5 | B5 | 44.8
6 | B6 | 3.1
7 | B7 | 20.5
8 | B8 | 5.4
9 | B9 | 3.5
10 | B10 | 7.9
11 | B11 | 23.3
12 | B12 | 4.9
13 | B13 | 8.4
14 | B14 | 7.9
15 | B15 | 5.4
16 | B16 | 5.2
17 | B17 | 74.3
18 | B18 | 11.7
19 | B19 | 1.9
20 | B20 | 44.9
21 | B21 | 6.5
22 | B22 | 4.1
23 | B23 | 8.1
24 | B24 | 10.7
25 | B25 | 25.9

Row | Binder | EC50 hGLP-1R (cAMP) [pM]
26 | B26 | 4.9
27 | B27 | 35.6
28 | B28 | 2.4
29 | B29 | 53.9
30 | B30 | 48
31 | B31 | 5.3
32 | B32 | 15.1
33 | B33 | 3.9
34 | B34 | 26
35 | B35 | 45.6
36 | B36 | 4.5
37 | B37 | 4.8
38 | B38 | 5
39 | B39 | 15.7
40 | B40 | 3.6
41 | B41 | 45
42 | B42 | 9.2
43 | B43 | 8.8
44 | B44 | 2.2
45 | B45 | 38.4
46 | B46 | 20.6
47 | B47 | 6.3
48 | B48 | 5.8
49 | B49 | 9.6
50 | B50 | 0.7

Molecular target: human glucagon receptor (human, UniProt P47871 26-477)
Sequence (P47871 26-477): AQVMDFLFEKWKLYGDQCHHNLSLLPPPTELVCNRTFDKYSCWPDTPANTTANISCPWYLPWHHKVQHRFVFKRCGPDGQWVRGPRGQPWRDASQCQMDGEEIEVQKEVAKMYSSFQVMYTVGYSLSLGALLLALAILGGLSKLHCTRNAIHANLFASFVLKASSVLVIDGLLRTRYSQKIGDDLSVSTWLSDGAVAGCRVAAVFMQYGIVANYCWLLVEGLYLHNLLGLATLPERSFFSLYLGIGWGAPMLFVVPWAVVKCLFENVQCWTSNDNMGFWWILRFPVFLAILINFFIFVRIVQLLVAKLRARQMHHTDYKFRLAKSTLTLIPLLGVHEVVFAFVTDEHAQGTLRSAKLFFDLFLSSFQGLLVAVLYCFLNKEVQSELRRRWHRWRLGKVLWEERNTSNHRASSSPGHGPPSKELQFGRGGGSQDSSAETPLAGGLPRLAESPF
Test: cell-based or functional assay

Row | Binder | EC50 hGlucagon-R (cAMP) [pM]
51 | B1 | 1.3
52 | B2 | 18.9
53 | B3 | 11.9
54 | B4 | 3
55 | B5 | 52.4
56 | B6 | 6.9
57 | B7 | 5.6
58 | B8 | 15.8
59 | B9 | 20.7
60 | B10 | 5.7
61 | B11 | 7.5
62 | B12 | 8.4
63 | B13 | 113
64 | B14 | 6.8
65 | B15 | 6.5
66 | B16 | 2.1
67 | B17 | 3.4
68 | B18 | 4.7
69 | B19 | 2
70 | B20 | 162
71 | B21 | 40.9
72 | B22 | 1.7
73 | B23 | 10.4
74 | B24 | 2.6
75 | B25 | 386

Row | Binder | EC50 hGlucagon-R (cAMP) [pM]
76 | B26 | 3.5
77 | B27 | 13.7
78 | B28 | 1.6
79 | B29 | 41.3
80 | B30 | 7.1
81 | B31 | 16
82 | B32 | 8.9
83 | B33 | 10.6
84 | B34 | 1
85 | B35 | 15.1
86 | B36 | 29.3
87 | B37 | 4
88 | B38 | 5.6
89 | B39 | 3
90 | B40 | 25.7
91 | B41 | 8
92 | B42 | 1.7
93 | B43 | 3.7
94 | B44 | 4.1
95 | B45 | 19.3
96 | B46 | 9.2
97 | B47 | 2.3
98 | B48 | 1
99 | B49 | 1.4
